Results from PMC8509808, “Characterization of the Chimeric PriB-SSBc Protein” (International Journal of Molecular Sciences, 2021).

Assays:
[1] = biological target: chimeric PriB-SSBc protein (KpPriB1-98 fused KpSSB112-174) (Klebsiella pneumoniae) (UniProt A6THB2); assay: SEC; purified PriB-SSBc 4 mg/mL in 20 mM HEPES, 100 mM NaCl, pH 7.0 on a Superdex 200 prep grade column, calibrated with standard proteins
[2] = biological target: the molecule itself; assay: crystal structure; KpSSB without DNA, 14 mg/mL, hanging drop vapor diffusion, 20% PEG 3350, 0.2 M magnesium acetate tetrahydrate, pH 6.5; four monomers per asymmetric unit
KpSSB [3] = biological target: T1, KpSSB (Klebsiella pneumoniae, UniProt A6TGW7 1-174); assay: EMSA; monomer conc.; 1 complex; EMSA: 20 mM Tris-HCl pH 8.0, 100 mM NaCl, 25 C, 30 min, 1.7 nM 32P-ssDNA; 8% native PAGE in TBE at 4 C; conditions: protein: recombinant; tags: none (tag-free); chain copies: 4; label: 5'-32P
KpPriB [4] = biological target: T2, KpPriB (Klebsiella pneumoniae, UniProt A6THB2 1-104); assay: as above; conditions: protein: recombinant; tags: none (tag-free); chain copies: 2; label: 5'-32P
KpSSB [5] = biological target: T1, KpSSB; assay: EMSA; monomer conc.; 2 complexes; EMSA: 20 mM Tris-HCl pH 8.0, 100 mM NaCl, 25 C, 30 min, 1.7 nM 32P-ssDNA; 8% native PAGE in TBE at 4 C; conditions: protein: recombinant; tags: none (tag-free); chain copies: 4; label: 5'-32P
KpSSB [6] = biological target: T1, KpSSB; assay: EMSA; ND; up to 5 uM protein; EMSA: 20 mM Tris-HCl pH 8.0, 100 mM NaCl, 25 C, 30 min, 1.7 nM 32P-ssDNA; 8% native PAGE in TBE at 4 C; conditions: protein: recombinant; tags: none (tag-free); chain copies: 4; label: 5'-32P
KpPriB [7] = biological target: T2, KpPriB; assay: EMSA; ND; up to 50 uM protein; EMSA: 20 mM Tris-HCl pH 8.0, 100 mM NaCl, 25 C, 30 min, 1.7 nM 32P-ssDNA; 8% native PAGE in TBE at 4 C; conditions: protein: recombinant; tags: none (tag-free); chain copies: 2; label: 5'-32P
KpSSB [8] = biological target: T1, KpSSB; assay: EMSA; ND; no stable complex up to 5 uM protein; EMSA: 20 mM Tris-HCl pH 8.0, 100 mM NaCl, 25 C, 30 min, 1.7 nM 32P-ssDNA; 8% native PAGE in TBE at 4 C; conditions: protein: recombinant; tags: none (tag-free); chain copies: 4; label: 5'-32P

Molecule: chimeric PriB-SSBc protein (KpPriB1-98 fused KpSSB112-174) (from UniProt A6THB2 1-98; A6TGW7 112-174)
- stoichiometry N [1]: 2

B1: Klebsiella pneumoniae SSB (natural protein, UniProt A6TGW7 1-174, looked up)
chain: MASRGVNKVILVGNLGQDPEVRYMPSGGAVANFTLATSESWRDKQTGEMKEQTEWHRVVLFGKLAEVAGEYLRKGSQVYIEGQLRTRKWTDQSGQDKYTTEVVVNVGGTMQMLGGRQGGGAPAGGGQQQGGWGQPQQPQGGNQFSGGAQSRPQQQAPAAPSNEPPMDFDDDIPF
notes: amino acids 120-174 not observed in the crystal structure; the gene spans 525 nt; also called KpSSB; source: E. coli, purified (ammonia sulfate precipitation, Q and Heparin columns)
- stoichiometry N [2]: 4

Molecule: TTTTTTTTTTTTTTTTTTTTTTTTTTTTTTTTTTTTTTTTTTTTTTTTTT (ssDNA) [dT50]
- apparent K (half saturation) (KpSSB [3]): 170 ± 20 nM
- apparent K (half saturation) (KpPriB [4]): 5.6 ± 0.3 µM

B2: dT55 (ssDNA)
DNA: TTTTTTTTTTTTTTTTTTTTTTTTTTTTTTTTTTTTTTTTTTTTTTTTTTTTTTT
- apparent K (half saturation) (KpPriB [4]): 4.9 ± 0.5 µM
- apparent K (half saturation) (KpSSB [5]): 130 ± 10 nM

B3: dT60 (ssDNA)
DNA: TTTTTTTTTTTTTTTTTTTTTTTTTTTTTTTTTTTTTTTTTTTTTTTTTTTTTTTTTTTT
- apparent K (half saturation) (KpPriB [4]): 4.8 ± 0.5 µM
- apparent K (half saturation) (KpSSB [5]): 50 ± 10 nM

Molecule: TTTTTTTTTTTTTTTTTTTTTTTTT (ssDNA) [dT25]
- apparent K (half saturation) (KpSSB [3]): 580 ± 50 nM
- apparent K (half saturation) (KpPriB [4]): 14.1 ± 1 µM

Molecule: TTTTTTTTTTTTTTT (ssDNA) [dT15]
- binding result (KpSSB [6]): no binding
- binding result (KpPriB [7]): no binding

Molecule: TTTTTTTTTTTTTTTTTTTT (ssDNA) [dT20]
- binding result (KpSSB [8]): no binding

Molecule: TTTTTTTTTTTTTTTTTTTTTTTTTTTTTT (ssDNA) [dT30]
- apparent K (half saturation) (KpSSB [3]): 550 ± 40 nM
- apparent K (half saturation) (KpPriB [4]): 9.2 ± 0.8 µM

Molecule: TTTTTTTTTTTTTTTTTTTTTTTTTTTTTTTTTTTTTTTT (ssDNA) [dT40]
- apparent K (half saturation) (KpSSB [3]): 230 ± 10 nM
- apparent K (half saturation) (KpPriB [4]): 9.1 ± 0.8 µM
